In the nanobody polyreactivity screen of Harvey et al. (2022):

Assay: yeast display, Sf9 membrane polyspecificity reagent, FACS + sequencing; frameworks hold sequencing errors
Summary of the method: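 Nanobodies came from a synthetic yeast display library in Saccharomyces cerevisiae BJ5465, induced with galactose for 36–48 hours and stained for 1 hour at 4 °C with 10% biotinylated, detergent-solubilized Sf9 membrane reagent. Cells were enriched on streptavidin microbeads and then FACS-sorted, with low and high (top ~1%) gates set on anti-HA fluorescence for expression and streptavidin fluorescence for reagent binding. Each polyreactivity label reflects the gate a clone came from. Genes were amplified by colony PCR, sequenced by MiSeq 2 × 250 and filtered by CDR length.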

Row | Sequence | polyreactivity (PSR sort gate)
1 | QVQLVESGGGLVQAGGSLRLTCAASGSIFKTNAMGWYRQAPGKERELVAAIRASGGSTYYADSVKGRFTISRDNAKNTVYLQMNSLKPEDTAVYYCAARYWFKYYWGQGTQVTVSS | low polyreactivity
2 | QDQLVESGGGLVQAGGSLRLSCAASGRTFYANAMGWNRQAPGKERELVAAISSSDDITYYADSVKGRFTNSRDNAKNTVYLQINSMKPEDTAVYYCAAEEYIVTYSGFWQEYEYWGQGTQVTVSS | high polyreactivity
3 | QVQLVESGGGLVQAGGSLRLSCAASGSIFSSNVMGWYRQAPGKERELVAAITVRGSRTYYADSVKGRFTISRDNAKNTVYLQMNSLKPEDTAVYYCNAVARVLGSDRRLQYYYWGQGTQVTVSS | high polyreactivity
4 | QVQLVESGGGLVQAGGSLRLSCAASGIIFFWNAMGWYRQAPGKERELVAAISEDGGGTYYADSVKGRFTISRDNAKNTVYLQMNSLKPEDTAVYYCNTDTSPQIVTRRSFDDYWGQGTQVTVSS | low polyreactivity
5 | QVQLVESGGGLVQAGGSLRLSCAASGSTFGWYVMGWYRQAPGKEREYVASISGSGGSTYYADSVKGRFTISRDNAKNTVYLQMNSLKPEDTAVYYCAAETGWYDDWSIYDYWGHGTQVTVSS | low polyreactivity
6 | QVQLVESGGGLVQAGGSLRLSCAASGRIFYYYAMGWYRQAPGTERELVASINSVGTTTYADSVKGRFTISRDNAKNTVYLEMNSLKPEDTAVYYCARDTGSIYYDGYEYDYWGQGTQVTVSS | low polyreactivity
7 | QVQLVESGGGLVQAGGSLRLSCAASGSTFYYNTMGWYRQAPGKDRELVAAITWTGGSTYYADSVKGRFTISRDNAKNTVYLQMNSLKPEDTAVYYCAAVNWRDEIYDYWGQGTQVTVSS | low polyreactivity
8 | QVQLVESGGGLVQAGGSLRLSCAASGLIFGNNAMGWYRQAPGKERELVAAISWSTGGSTYYADSVKGRFTISRDNAKNTVYLQMNSLKPEDTAVYYCAAQYSYGEYWGYDYWGQGTQVTVSS | low polyreactivity
9 | QVQLVESGGGLVQAGGSLRLSCAASGRTFGINAMRWSRQATGKERELVAAITGRSGRTYYADSVKGRFTISRDNAKYTVYLQMNSLQPEDTAVYYCAARWPVYSRRYGYWGQGTQVTVSS | high polyreactivity
10 | QVQLVESGGGLVQAGGSLRLSCAASGRIFTYAMGWYRQAPGKERELVAAISRRGGSTYYADSVKGRFTISRDNAKNTVYLQMNSLKPEDTAVYYCAKERSFGDGNFDYEYWGQGTQVTVSS | high polyreactivity
11 | QVQLVESGGGLVQAGGSLRLSCAASGRIGRYAMGWYRQAPGKERELVAAITWSGGSTYYADSVKGRFTISRDNAKNTVYLQMNSLKPEDTAVYYCATGRYRDQPRTGYDYWGQGTQVTVSS | high polyreactivity
12 | QVQLVESGGGLVQAGGSLRLSCAASVSIFGPYAKGWYRQAPGKERDLDAAISRGSRTNYADSVKGLFTISRDNEKNTVYLQMNSLKPEDTAVYYCAARYVWRSTHHRGSTYDYWRQGTQVTVSS | high polyreactivity
13 | QVQLVESGGGLVQAGGSLRLSCAASGSTFGYYAMGWYRQAPGKERELVAVIRRGGSTNYADSVKGRFTISRDNAKNTVYLQMNSLKPEDTAVYYCAKSQRGTVYSYYYWGQGTQVTVSS | high polyreactivity
14 | QVQLVESGGGLVQAGGSLRLSCAASGSTFGPNTMGWYRQAPGKERELVAAISRAGRTYYADSVKGRFTISRDNAKNTVYLQMNSLKPEDTAVYYCNAGRSYHWRAGGEYDYWGQGTQVTVSS | low polyreactivity
15 | QVQLVESGGGLVQAGGSLRLSCAASGSTFGLYARGWYRQAPGKERELVAAISGGRTYYADSVKGRFTISRDNAKNTVYLQMNSLKPEDTAVYYCAADYNYYWGQGTQVTVSS | high polyreactivity
16 | QVQLVESGGGLVQAGGTLRLSCAASGGIFTDYTMGWYRQAPGKERELVAAITWTGGSTYYADSVKGRFTISRDNAKNTVYLQMNSLKPEDTAVYYCAADDYWVNLDYWGQGTQVTVSS | low polyreactivity
17 | QVQLVESGGRLVQAGGSLRISCDASGFIFVRNAMGWSRQAPGTEWELVAASTLCTGSTYYADSVKGRFTISRDNAKITVYLQMKSLKPEDTAVYYCNANKRIRPYRPGMDYWGHGTQVTVSS | high polyreactivity
